Reference: publication PMC8106667 (Molecular cell, 2021)
Substitutions are numbered along the chain they refer to.

B1: GST-CDC6 wild type, full length (natural protein, human, UniProt Q99741 1-560, looked up)
chain: MPQTRSQAQATISFPKRKLSRALNKAKNSSDAKLEPTNVQTVTCSPRVKALPLSPRKRLGDDNLCNTPHLPPCSPPKQGKKENGPPHSHTLKGRRLVFDNQLTIKSPSKRELAKVHQNKILSSVRKSQEITTNSEQRCPLKKESACVRLFKQEGTCYQQAKLVLNTAVPDRLPAREREMDVIRNFLREHICGKKAGSLYLSGAPGTGKTACLSRILQDLKKELKGFKTIMLNCMSLRTAQAVFPAIAQEICQEEVSRPAGKDMMRKLEKHMTAEKGPMIVLVLDEMDQLDSKGQDVLYTLFEWPWLSNSHLVLIGIANTLDLTDRILPRLQAREKCKPQLLNFPPYTRNQIVTILQDRLNQVSRDQVLDNAAVQFCARKVSAVSGDVRKALDVCRRAIEIVESDVKSQTILKPLSECKSPSEPLIPKRVGLIHISQVISEVDGNRMTLSQEGAQDSFPLQQKILVCSLMLLIRQLKIKEVTLGKLYEAYSKVCRKQQVAAVDQSECLSLSGLLEARGILGLKRNKETRLTKVFFKIEEKEIEHALKDKALIGNILATGLP
B2: GST-CDC6-HIS6 (natural protein, human, UniProt Q99741 1-560, looked up)
chain: B1 chain
B3: MBP-CDC6-HIS6 (natural protein, human, UniProt Q99741 1-560, looked up)
chain: B1 chain
B4: ORC1-180-240-HIS6 wild type (domain or fragment, human, UniProt Q13415 180-240, looked up)
chain: QESAAKCQKPVRAKSKSAESPSWTPAEHVAKRIESRHSASKSRQTPTHPLTPRARKRLELG
B5: MBP-ORC1-350-400 wild type (domain or fragment, human, UniProt Q13415 350-400, looked up)
chain: SVILKPENIKKRDAKEAKAQNEATSTPHRIRRKSSVLTMNRIRQQLRFLGN

How the values were obtained:
Experiment in all cases: pull-down
[1] = target: T1, MBP-ORC1-PSM123 (Phosphorylation Site Mutant, S258A, S273A and T375A) (human, UniProt Q13415 1-861, S258A | S273A | T375A)
T1 sequence (looked up): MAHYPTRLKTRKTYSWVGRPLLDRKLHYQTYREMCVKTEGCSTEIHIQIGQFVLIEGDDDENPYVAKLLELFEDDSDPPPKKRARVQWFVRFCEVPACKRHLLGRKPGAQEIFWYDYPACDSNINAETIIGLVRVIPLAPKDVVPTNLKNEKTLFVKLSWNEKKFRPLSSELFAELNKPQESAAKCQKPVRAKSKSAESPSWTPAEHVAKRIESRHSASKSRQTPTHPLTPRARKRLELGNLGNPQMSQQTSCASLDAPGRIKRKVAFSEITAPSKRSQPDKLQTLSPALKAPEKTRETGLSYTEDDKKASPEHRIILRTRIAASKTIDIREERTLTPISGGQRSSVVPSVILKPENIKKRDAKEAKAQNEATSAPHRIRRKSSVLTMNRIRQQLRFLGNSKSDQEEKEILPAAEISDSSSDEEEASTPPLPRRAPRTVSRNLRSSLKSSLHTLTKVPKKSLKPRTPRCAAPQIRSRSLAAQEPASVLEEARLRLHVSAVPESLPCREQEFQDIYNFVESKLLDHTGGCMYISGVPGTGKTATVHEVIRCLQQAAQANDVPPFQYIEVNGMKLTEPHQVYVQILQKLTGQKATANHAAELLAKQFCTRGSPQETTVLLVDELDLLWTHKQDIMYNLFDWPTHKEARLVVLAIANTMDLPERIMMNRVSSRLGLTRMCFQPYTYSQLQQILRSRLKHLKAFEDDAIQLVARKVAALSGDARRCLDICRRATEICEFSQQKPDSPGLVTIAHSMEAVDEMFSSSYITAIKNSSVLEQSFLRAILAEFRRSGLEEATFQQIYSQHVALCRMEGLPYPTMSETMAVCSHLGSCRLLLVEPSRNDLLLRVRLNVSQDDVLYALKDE

MBP-ORC1 R105Q = target: T2, MBP-ORC1 R105Q (human, UniProt Q13415 1-861, R105Q)
T2 sequence (looked up): T1 sequence (looked up) with R105Q, A258S, A273S, A375T

MBP-ORC2 = target: T3, MBP-ORC2 (human, UniProt Q13416 1-577)
T3 sequence (looked up): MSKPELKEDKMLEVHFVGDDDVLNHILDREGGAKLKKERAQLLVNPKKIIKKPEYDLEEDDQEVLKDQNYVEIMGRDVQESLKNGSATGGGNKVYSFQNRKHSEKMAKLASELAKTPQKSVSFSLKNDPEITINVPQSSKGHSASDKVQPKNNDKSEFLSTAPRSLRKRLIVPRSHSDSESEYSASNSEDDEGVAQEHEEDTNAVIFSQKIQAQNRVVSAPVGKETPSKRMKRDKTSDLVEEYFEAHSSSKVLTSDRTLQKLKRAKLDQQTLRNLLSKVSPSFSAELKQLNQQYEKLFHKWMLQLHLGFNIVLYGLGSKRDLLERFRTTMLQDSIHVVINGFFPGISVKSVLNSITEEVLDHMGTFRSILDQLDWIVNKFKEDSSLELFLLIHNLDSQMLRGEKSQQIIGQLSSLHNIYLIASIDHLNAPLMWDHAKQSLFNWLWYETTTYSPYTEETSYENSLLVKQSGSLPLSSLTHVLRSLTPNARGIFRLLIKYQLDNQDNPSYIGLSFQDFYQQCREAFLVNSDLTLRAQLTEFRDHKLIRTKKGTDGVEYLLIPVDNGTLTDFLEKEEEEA

[2] = target: T4, MBP-ORC1 wild type, full length (human, UniProt Q13415 1-861)
T4 sequence (looked up): T1 sequence (looked up) with A258S, A273S, A375T

MBP-GFP-ORC1-HIS6 = target: T5, MBP-GFP-ORC1-HIS6 (human, UniProt Q13415 1-861)
T5 sequence (looked up): T1 sequence (looked up) with A258S, A273S, A375T

[3] = target: B1
[4] = target: T6, MBP-ORC1-230-400 A-A (Cy motif mutant) (human, UniProt Q13415 230-400, K235A | L237A)
T6 sequence (looked up): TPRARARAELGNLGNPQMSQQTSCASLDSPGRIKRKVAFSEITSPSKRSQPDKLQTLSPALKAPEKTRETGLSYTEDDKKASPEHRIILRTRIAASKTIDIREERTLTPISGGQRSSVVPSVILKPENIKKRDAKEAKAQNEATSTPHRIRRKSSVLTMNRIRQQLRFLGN

[5] = target: T7, MBP-ORC1-230-400 wild type (human, UniProt Q13415 230-400)
T7 sequence (looked up): T6 sequence (looked up) with A6K, A8L

[6] = target: B4

## B1
[1]
  binding result: binds
MBP-ORC1 R105Q
  binding result: binds
MBP-ORC2
  binding result: binds
[2]
  binding result: binds

## B2
MBP-GFP-ORC1-HIS6
  binding result: binds

## B3
MBP-GFP-ORC1-HIS6
  binding result: binds

## B4
[3]
  binding result: binds
[4]
  binding result: binds
[5]
  binding result: binds

## B5
[6]
  binding result: binds
